We go through one molecule from US20250032583A1 (GUANGDONG FAPON BIOPHARMA, published 2025).

The target of this assay is T1, mPD1 (on CHO-mPD1 cells) (mouse (printed as mPD1), UniProt Q02242 25-288).
T1 construct: whole, on cells; Target of the antibody terminus in the FACS assay
T1 sequence (looked up): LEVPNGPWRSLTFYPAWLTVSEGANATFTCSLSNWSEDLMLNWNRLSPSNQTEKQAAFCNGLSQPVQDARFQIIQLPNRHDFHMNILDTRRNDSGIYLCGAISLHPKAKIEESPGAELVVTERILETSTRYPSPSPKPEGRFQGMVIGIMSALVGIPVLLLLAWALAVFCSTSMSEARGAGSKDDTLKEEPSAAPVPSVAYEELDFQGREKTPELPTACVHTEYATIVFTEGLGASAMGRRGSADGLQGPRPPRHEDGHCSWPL
Description: flow cytometry (FACS) on CHO-mPD1 cells, PE secondary antibody, 3-fold dilutions from 400 nM. As to the method:
CHO-mPD1 or CHO-hIL-10R cells were centrifuged at 250 g for 5 min, a supernatant was discarded, the cell density was adjusted to 2E+06 by a PBS buffer with 3% BSA, and it was evenly divided into a 96-well V-shaped plate according to 100 μl/tube; the fusion protein molecules diluted above were added to cells, and incubated at 100 μL/well and 2-8° C. for 0.5 h; the 96-well plate was taken out, and centrifuged at 250 g for 5 min, and a supernatant was removed carefully; the PBS buffer with 3% BSA was used to prepare a PE fluorescent secondary antibody (1:500 dilution), it was added to the corresponding 96-well plate according to the volume of 100 μL/well, and the cells were resuspended, and incubated at 2-8° C. for 30 min; the 96-well plate was taken out, and centrifuged at 250 g for 5 min, a supernatant was removed carefully, the PBS buffer with 3% BSA was added at 200 μL/well, and it was centrifuged again at 250 g for 5 min, and a supernatant was removed carefully; and it was resuspended with 1×PBS according to the volume of 100 μL/well, and FACS detection was performed after the resuspension.
A general note: In flow cytometry, cells or beads pass a laser one at a time.

B1: R0989 (other)
heavy: QVQLKESGPGLVQPSQTLSLTCTVSGFSLTSYNVHWVRQPPGKGLEWMGGMRYNEDTSYNSALKSRLSISRDTSKNQVFLKMNSLQTDDTGTYYCTRDAVYGGYGGWFAYWGQGTLVTVSSASTKGPSVFPLAPSSKSTSGGTAALGCLVKDYFPEPVTVSWNSGALTSGVHTFPAVLQSSGLYSLSSVVTVPSSSLGTQTYICNVNHKPSNTKVDKRVEPKSCDKTHTCPPCPAPEAAGGPSVFLFPPKPKDTLMISRTPEVTCVVVDVSHEDPEVKFNWYVDGVEVHNAKTKPREEQYNSTYRVVSVLTVLHQDWLNGKEYKCKVSNKALPAPIEKTISKAKGSGSGSGSGQGTQSENSCTHFPGNLPNMLRDLRDAFSRVKTFFQMKDQLDNLLLKESLLEDFKGYLGCQALSEMIQFYLEEVMPQAENQDPDIKAHVNSLGENLKTLRLRLRRCHRFLPCENGGGSGGKSKAVEQVKNAFNKLQEKGIYKAMSEFDIFINYIEAYMTMKIRNGSGSGSGSGQPREPQVYTLPPSREEMTKNQVSLTCLVKGFYPSDIAVEWESNGQPENNYKTTPPVLDSDGSFFLYSKLTVDKSRWQQGNVFSCSVMHEALHNHYTQKSLSLSPGK
light: DTVLTQSPALAVSLGQRVTISCKASETVSSSMYSYIHWYQQKPGQQPKLLIYRASNLESGVPARFSGSGSGTDFTLTIDPVEADDVATYFCQQSWNPWTFGGGTKLELKRTVAAPSVFIFPPSDEQLKSGTASVVCLLNNFYPREAKVQWKVDNALQSGNSQESVTEQDSKDSTYSLSSTLTLSKADYEKHKVYACEVTHQGLSSPVTKSFNRGEC
notes: Anti-PD-1 antibody with the modified IL-10 monomer inserted between CH2 and CH3 through linker2; also called IL-10 monomer fusion protein, IL-10 monomer between CH2 and CH3 of the heavy chain (Position 3)
In the case of B1, the binding result is on record as “binds”.
